These results are taken from the supplement of paper PMC11908140.

The chains are these.
B1: library; numbered along this chain (parent)
chain: MRKPRAAVGSGHRKQAASQEGRQKHAKNNSQAKPSACDGLARQPEEVVLQASVSSYHLFRDVAEVTAFRGSLLSWYDQEKRDLPWRRRAEDEMDLDRRAYAVWVSEVMLQQTQVATVINYYTGWMQKWPTLQDLASASLEEVNQLWAGLGYYSRGRRLQEGARKVVEELGGHMPRTAETLQQLLPGVGRYTAGAIASIAFGQATGVVDGNVARVLCRVRAIGADPSSTLVSQQLWGLAQQLVDPARPGDFNQAAMELGATVCTPQRPLCSQCPVESLCRARQRVEQEQLLASGSLSGSPDVEECAPNTGQCHLCLPPSEPWDQTLGVVNFPRKASRKPPREESSATCVLEQPGALGAQILLVQRPNSGLLAGLWEFPSVTWEPSEQLQRKALLQELQRWAGPLPATHLRHLGEVVHTFSHIKLTYQVYGLALEGQTPVTTVPPGARWLTQEEFHTAAVSTAMKKVFRVYQGQQPGTCMGSKRSQVSSPCSRKKPRMGQQVLDNFFRSHISTDAHSLNSAAQ

In the data set the parent is B1. The data set can be described thus: 8OG:A repair function score (normalized; synonymous = 0, nonsense = -1) (normalized log-likelihood score); higher = more repair activity (WT-like). The conditions noted are these: with 8OG:A DNA repair reporter (GFP) in HEK-293 MUTYH KO cells. The procedure: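 Saturation mutagenesis (NNN codon scan) of the MUTYH cDNA (521-aa nuclear isoform NM_001048174.1 / NP_001041639), stably expressed under doxycycline induction in HEK-293 MUTYH knockout cells. Cells were co-transfected with an 8OG:A-bearing GFP repair reporter plus mCherry and sorted 72 h later into GFP+ and GFP− bins, three replicates per tile. The Rosace log2 enrichment (GFP+ vs GFP−) was converted per tile to a normalized function score with synonymous variants centered at 0 and nonsense variants (codons 1-471) at -1; low-abundance variants were removed.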
Take MRKPRAAVGSGHRKQAASQEGRQKHAKNNSQAKPSACDGLARQPEEVVLQASVSSYHLFRDVAEVTAFRGSLLSWYDQEKRDLPWRRRAEDEMDLDRRAYAVWVSEVMLQQTQVATVINYYTGWMQKWPTLQDLASASLEEVNQLWAGLGYYSRGRRLQEGARKVVEELGGHMPRTAETLQQLLPGVGRYTAGAIASIAFGQATGVVDGNVARVLCRVRAIGADPSSTLVAQQLWGLAQQLVDPARPGDFNQAAMELGATVCTPQRPLCSQCPVESLCRARQRVEQEQLLASGSLSGSPDVEECAPNTGQCHLCLPPSEPWDQTLGVVNFPRKASRKPPREESSATCVLEQPGALGAQILLVQRPNSGLLAGLWEFPSVTWEPSEQLQRKALLQELQRWAGPLPATHLRHLGEVVHTFSHIKLTYQVYGLALEGQTPVTTVPPGARWLTQEEFHTAAVSTAMKKVFRVYQGQQPGTCMGSKRSQVSSPCSRKKPRMGQQVLDNFFRSHISTDAHSLNSAAQ [S231A]: the “8OG:A repair function score” value is -0.0555.
Next, MRKPRAAVGSGHRKQAASQEGRQKHAKNNSQAKPSACDGLARQPEEVVLQASVSSYHLFRDVAEVTAFRGSLLSWYDQEKRDLPWRRRAEDEMDLDRRAYAVWVSEVMLQQTQVATVINYYTGWMQKWPTLQDLASASLEEVNQLWAGLGYYSRGRRLQEGARKVVEELGGHMPRTAETLQQLLPGVGRYTAGAIASIAFGQATGVVDGNVARVLCRVRAIGADPSSTLVSQQLWGLAQQLVDPARPGDFNQAAMELGATVCTPQRPLCSQCPVESLCRARQRVEQEQLLASGSLSGSPDVEECAPNTGQCHLCLPPSEPWDQTLGVVNFPRKASRKPPREESSATCVLEQPGALGAQILLVQRPNSGLLAGLWEFPSVTWEPSEQLQRKALLQELQRWAGPLPATHLRHLGEVVHTFSHIKLTYQVYGLALEGQTPVTTVPPGARWLTQEEFHTAAVSTAMKKVFRVYQGQQPGTCMGSKRSQVSSPCSRKKPRMGQNVLDNFFRSHISTDAHSLNSAAQ [Q499N]: -0.0201.
As to MRKPRAAVGSGHRKQAASQEGRQKHAKNNSQAKPSACDGLARQPEEVVLQASVSSYHLFRDVAEVTAFRGSLLSWYDQEKRDLPWRRRAEDEMDLDRRAYAVWVSEVMLQQTQVATVINYYTGWMQKWPTLQDLASASLEEVNQLWAGLGYYSRGRRLQEGARKVVEELGGHMPRTAETLQQLLPGVGRYTAGAIASIAFGQATGVVDGNVARVLCRVRAIGADPSSTLVSQQLWGLAQQLVDPARPGDFNQAAMELGATVCTPQRPLCSQCPVESDCRARQRVEQEQLLASGSLSGSPDVEECAPNTGQCHLCLPPSEPWDQTLGVVNFPRKASRKPPREESSATCVLEQPGALGAQILLVQRPNSGLLAGLWEFPSVTWEPSEQLQRKALLQELQRWAGPLPATHLRHLGEVVHTFSHIKLTYQVYGLALEGQTPVTTVPPGARWLTQEEFHTAAVSTAMKKVFRVYQGQQPGTCMGSKRSQVSSPCSRKKPRMGQQVLDNFFRSHISTDAHSLNSAAQ [L277D], the “8OG:A repair function score” value is -0.199.
On to MRKPRAAVGSGHRKQAASQEGRQKHAKNNSQAKPSACDGLARQPEEVVLQASVSSYHLFRDVAEVTAFRGSLLSWYDQEKRDLPWRRRAEDEMDLDRRAYAVWVSEVMLQQTQVATVINYYTGWMQKWPTLQDLASASLEEVNQLWAGLGYYSRGRRLQEGARKVVEELGGHMPRTAETLQQLLPGVGRYTAGAIASIAFGQATGVVDGNVARVLCRVRAIGADPSSTLVSQQLWGLAQQLVDPARPGDFNQAAMELGATVCTPQRPLCSQCPVESLCRARQRVEQEQLLASGSLSGSPDVEECAPNTGQCHLCLPPSEPWDQTLGVVNFPRKASRKPPREESSATCVLEQPGALGAQILLVQRPNSGLLAGLWEFPSVTWEPSEQLQRKALLQELQRWAGPLPATHLRHLGEVVHTFSHIKLTYQVYGLALEGQTPVTTVPPGARWLTQEEFHTAAVSTAMKKVFRVYQGQQPGTCMGSKRSQVSSPCSRQKPRMGQQVLDNFFRSHISTDAHSLNSAAQ [K492Q], for which the “8OG:A repair function score” value came out at 0.0192.
In the case of MRKPRAAVGSGHRKQAASQEGRQKHAKNNSQAKPSACDGLARQPEEVVLQASVSSYHLFRDVAEVTAFRGSLLSWYDQEKRDLPWRRRAEDEMDLDRRAYAVWVSEVMLQQTQVATVINYYTGWMQKWPTLQDLASASLEEVNQLWAGLGYYSRGRRLQEGARKVVEELGGHMPRTAETLQQLLPGVGRYTAGAIASIAFGQATGVVDGNVARVLCRVRAIGADPSSTLVSQQLWGLAQQLVDPARPGDFNQAAMELGATVCTPQRPWCSQCPVESLCRARQRVEQEQLLASGSLSGSPDVEECAPNTGQCHLCLPPSEPWDQTLGVVNFPRKASRKPPREESSATCVLEQPGALGAQILLVQRPNSGLLAGLWEFPSVTWEPSEQLQRKALLQELQRWAGPLPATHLRHLGEVVHTFSHIKLTYQVYGLALEGQTPVTTVPPGARWLTQEEFHTAAVSTAMKKVFRVYQGQQPGTCMGSKRSQVSSPCSRKKPRMGQQVLDNFFRSHISTDAHSLNSAAQ [L268W], the “8OG:A repair function score” value is -0.0985.
With MRKPRAAVGSGHRKQAASQEGRQKHAKNNSQAKPSACDGLARQPEEVVLQASVSSYHLFRDVAEVTAFRGSLLSWYDQEKRDLPWRRRAEDEMDLDRRAYAVWVSEVMLQQTQVATVINYYTGWMQKWPTLQDLASASLEEVNQLWAGLGYYSRGRRLQEGARKVVEELGGHMPRTAETLQQLLPGVGRYTAGAIASIAFGQATGVVDGNVARVLCRVRAIGADPSSTLVSQQLWGLAQQLVDPARPGDFNQAAMELGATVCTPQRPLCSQCPVESLCRARQRVEQEQLLASGSLSGSPDVEECAPNTGQCHLCLPPSEPWDQTLGVVNFPRKASRKPPREESSATCVLEQPGALGAQILLVQRPNSGLLAGLWEFPSVTWEPSEQLQRKALLQELQRWAGPLPATHLRHLGEVVHTFSHIKLTYQVYGLALEGQTPVTTVPPGARWLTQEEFHIAAVSTAMKKVFRVYQGQQPGTCMGSKRSQVSSPCSRKKPRMGQQVLDNFFRSHISTDAHSLNSAAQ [T455I], the “8OG:A repair function score” value came to 0.0349.
